Measured values published in patent US20150106963A1.

Biological target: porcine cytochrome P450 17A1 (CYP17A1), wild type (pig (Sus scrofa)) (UniProt P19100)
Assay: cell-based or functional assay
Details: scale: ratio

UniProt P19100, sequence (P19100 whole entry H407L, form in doubt): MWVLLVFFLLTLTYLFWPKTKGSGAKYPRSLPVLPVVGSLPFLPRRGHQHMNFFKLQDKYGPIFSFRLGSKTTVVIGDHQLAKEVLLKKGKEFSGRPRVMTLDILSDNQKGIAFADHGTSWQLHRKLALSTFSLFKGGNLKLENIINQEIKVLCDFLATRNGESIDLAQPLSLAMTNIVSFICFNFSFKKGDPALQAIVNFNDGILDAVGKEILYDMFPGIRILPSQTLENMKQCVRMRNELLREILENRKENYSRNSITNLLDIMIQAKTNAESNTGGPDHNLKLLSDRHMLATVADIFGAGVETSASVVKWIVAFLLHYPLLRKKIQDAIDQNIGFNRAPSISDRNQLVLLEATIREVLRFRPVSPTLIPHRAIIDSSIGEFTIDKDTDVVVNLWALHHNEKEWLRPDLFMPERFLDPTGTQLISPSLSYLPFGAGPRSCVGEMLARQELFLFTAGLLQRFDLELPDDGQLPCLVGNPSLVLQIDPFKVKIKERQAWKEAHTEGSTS

Overall conversion (ratio of activity with b5/activity without b5), pregnenolone metabolism in transfected HEK-293 cells | Substance
1.2 | porcine cytochrome b5 type A mutant CYB5A-L28V (from UniProt P00172 2-134)
1.05 | porcine cytochrome b5 type A double mutant CYB5A-N21K+L28V (from UniProt P00172 2-134)
0.765 | porcine cytochrome b5 type A mutant CYB5A-R52M (from UniProt P00172 2-134)
0.957 | porcine cytochrome b5 type A double mutant CYB5A-R52M+N62S (from UniProt P00172 2-134)
1.09 | porcine cytochrome b5 type A mutant CYB5A-T70S (from UniProt P00172 2-134)
1.4 | porcine cytochrome b5 type A mutant CYB5A-QM R52M/G57R/N62S/T70S (from UniProt P00172 2-134)
2.16 | porcine cytochrome b5 type A mutant CYB5A-N62S (from UniProt P00172 2-134)
0.865 | porcine cytochrome b5 type A mutant CYB5A-G57R (from UniProt P00172 2-134)
1.36 | porcine cytochrome b5 type A mutant CYB5A-N21K (from UniProt P00172 2-134)
